From US20230365642A1 (MEDICENNA THERAPEUTICS, published 2023)

How the values were obtained:
[1] = target: T1, IL4R Type-II (IL4Rα chain with IL13Rα1), on cells (UniProt P24394 26-825; P78552 22-427, limits assumed); test: cell-based or functional assay
T1 sequence (looked up) 1: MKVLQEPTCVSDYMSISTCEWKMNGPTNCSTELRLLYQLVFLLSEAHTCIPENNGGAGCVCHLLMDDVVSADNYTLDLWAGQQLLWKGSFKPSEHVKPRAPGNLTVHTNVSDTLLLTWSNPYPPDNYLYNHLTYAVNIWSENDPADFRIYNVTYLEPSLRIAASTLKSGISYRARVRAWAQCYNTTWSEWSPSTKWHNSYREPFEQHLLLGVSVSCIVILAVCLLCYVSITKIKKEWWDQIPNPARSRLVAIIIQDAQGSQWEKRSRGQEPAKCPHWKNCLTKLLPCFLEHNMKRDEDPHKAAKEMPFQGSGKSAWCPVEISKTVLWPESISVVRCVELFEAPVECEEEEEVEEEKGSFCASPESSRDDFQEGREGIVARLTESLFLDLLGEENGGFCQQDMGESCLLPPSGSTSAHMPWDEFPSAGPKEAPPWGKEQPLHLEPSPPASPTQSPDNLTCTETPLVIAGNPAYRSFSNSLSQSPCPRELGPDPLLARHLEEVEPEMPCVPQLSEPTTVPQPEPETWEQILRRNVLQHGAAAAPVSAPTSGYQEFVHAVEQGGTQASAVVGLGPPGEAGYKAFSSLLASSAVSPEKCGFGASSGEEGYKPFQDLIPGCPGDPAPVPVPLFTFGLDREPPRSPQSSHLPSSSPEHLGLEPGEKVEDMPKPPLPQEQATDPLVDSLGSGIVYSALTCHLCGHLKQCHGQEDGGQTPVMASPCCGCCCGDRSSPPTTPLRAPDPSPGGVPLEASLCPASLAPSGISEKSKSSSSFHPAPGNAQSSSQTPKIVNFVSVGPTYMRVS
T1 sequence (looked up) 2: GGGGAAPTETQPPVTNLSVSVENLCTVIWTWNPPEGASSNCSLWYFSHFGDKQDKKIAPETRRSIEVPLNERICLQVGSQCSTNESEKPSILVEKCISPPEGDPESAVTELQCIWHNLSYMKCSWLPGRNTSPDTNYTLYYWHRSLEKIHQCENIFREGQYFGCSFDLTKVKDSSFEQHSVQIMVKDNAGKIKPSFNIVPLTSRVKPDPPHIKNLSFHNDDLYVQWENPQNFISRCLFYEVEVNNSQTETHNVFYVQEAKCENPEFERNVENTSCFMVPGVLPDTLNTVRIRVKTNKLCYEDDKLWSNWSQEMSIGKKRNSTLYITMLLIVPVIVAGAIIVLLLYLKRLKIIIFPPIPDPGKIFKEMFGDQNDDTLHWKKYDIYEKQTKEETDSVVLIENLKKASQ

[2] = target: T1, IL4R Type-II (IL4Rα chain with …); test: cell-based or functional assay; remark: listed apart in the source
[3] = target: T1, IL4R Type-II (IL4Rα chain with …); test: cell-based or functional assay; remark: listed apart in the source
[4] = target: T2, IL13Rα Protein, Human, Recombinant, His Tag (human IL13Rα1) (human, UniProt P78552 22-343, limits assumed); test: ELISA, receptor coated on plate, anti-human IgG Fc detection
T2 construct: also called hIL13Rα1; IL13Ra1; not shown: His tag
T2 sequence (looked up): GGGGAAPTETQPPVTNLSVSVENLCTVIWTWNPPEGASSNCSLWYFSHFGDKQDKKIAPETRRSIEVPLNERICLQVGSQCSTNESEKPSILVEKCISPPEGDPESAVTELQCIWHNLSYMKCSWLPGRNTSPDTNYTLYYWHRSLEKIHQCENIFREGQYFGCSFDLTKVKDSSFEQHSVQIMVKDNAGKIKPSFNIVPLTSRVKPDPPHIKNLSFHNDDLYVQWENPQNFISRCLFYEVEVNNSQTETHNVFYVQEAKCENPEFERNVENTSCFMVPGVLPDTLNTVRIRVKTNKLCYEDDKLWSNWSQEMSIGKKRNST

[5] = target: T3, IL13Rα1 Protein, Mouse, Recombinant, His Tag (mouse, UniProt O09030 26-340, limits assumed); test: as above
T3 construct: also called mouse IL13Rα1; mIL13Rα1; not shown: His tag
T3 sequence (looked up): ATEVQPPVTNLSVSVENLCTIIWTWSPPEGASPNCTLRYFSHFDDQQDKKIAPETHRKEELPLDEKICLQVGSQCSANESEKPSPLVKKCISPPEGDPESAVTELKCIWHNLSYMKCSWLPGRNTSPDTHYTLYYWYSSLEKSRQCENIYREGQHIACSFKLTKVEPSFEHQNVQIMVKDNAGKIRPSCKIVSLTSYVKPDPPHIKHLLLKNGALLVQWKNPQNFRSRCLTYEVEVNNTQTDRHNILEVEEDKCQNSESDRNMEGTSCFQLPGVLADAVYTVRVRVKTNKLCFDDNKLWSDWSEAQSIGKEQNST

- IL-13 Mediated M2 polarization CD206 (IC50 nM), first donor [1]: 0.48 nM
- IL-13 Mediated M2 polarization CD209 (IC50 nM), first donor [1]: 1.6 nM
- IL-13 Mediated M2 polarization CD209 (IC50 nM), second donor [1]: 0.492 nM
- IL4 EC50 (nM); IL-4 competitive assay, HEK-Blue IL-4/IL-13 reporter cells [2]: 7.5 nM
- IL 13 EC50 (nM); IL-13 competitive assay, HEK-Blue IL-4/IL-13 reporter cells [2]: 37.8 nM
- IL-4 Mediated M2 polarization CD206 (IC50 nM), second donor [3]: 2.01 nM
- IL-4 Mediated M2 polarization CD209 (IC50 nM), first donor [3]: 0.59 nM
- IL-4 Mediated M2 polarization CD209 (IC50 nM), second donor [3]: 2.3 nM
- binding result [4]: binds
- binding result [5]: binds
B1: Fc4-MDNA413 (1:2) (Fc fusion)
chain: APPCPSCPAPEFLGGPSVFLFPPKPKDTLMISRTPEVTCVVVDVSQEDPEVQFNWYVDGVEVHNAKTKPREEQFNSTYRVVSVLTVLHQDWLNGKEYKCKVSNKGLPSSIEKTISKAKGQPREPQVYTLPPSQEEMTKNQVSLTCLVKGFYPSDIAVEWESNGQPENNYKTTPPVLDSDGSFFLYSRLTVDKSRWQEGNVFSCSVMHEALHNHYTQKSLSLSPGKGGGSGSPGPVPPSTAVRALIEELINITQNQKAPLCNGSMVWSINRTAGMYCAALESLINVSGCSAIEKTQDMLSGFCPHKVSAGQFSSLHVRSSKIEVAQFVKDLLFHLRTLFREGQFN
notes: also called Fc4-MDNA413^R39/Q111 (1:2)
